± gives the standard deviation of the averaged measurements.

The text below walks through data of the supplement of paper PMC10724198.
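Also: PSI is a weighted mean of sequencing reads over stability bins, variants kept only with over 10 reads, mCherry proximal and sfGFP distal, peptide attached via GGGS linker.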

For the data set, the system named is Saccharomyces cerevisiae. Nature of the data set: protein stability index of tFT-peptide fusion (C-terminal peptide) (PSI (0-1 scale)); higher = more stable (slower turnover). The conditions noted are these: genetic background: wild type; temperature: 30 C. Here is the method: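 Multiplexed protein stability (MPS) profiling in S. cerevisiae. Random 12-aa peptides (tFT-X12 library) are fused to the C-terminus of a sfGFP-mCherry tandem fluorescent timer, after mCherry and a GGGS linker. Cells are FACS-sorted into 8 mCherry/sfGFP bins and deep-sequenced. The protein stability index (PSI) is the read-weighted bin average, scaled from 0 (unstable) to 1 (stable). Only peptides with >10 reads are reported; cells were grown at 30 °C in SC-His with glucose.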
GGFGSCVGHVLG displayed a protein stability index of 0.735 ± 0.077.
Take GGFRWLGGSAPA: the protein stability index was found to be 0.727 ± 0.072.
As to GGFVISGDVTVG, the protein stability index came to 0.688 ± 0.038.
Turning to GGFVVGGGGWLG, the protein stability index was 0.733 ± 0.033.
The result for GGGAGGRQGCGG reads 0.771 ± 0.027.
The result for GGGAGKGPQTRG reads 0.676 ± 0.062.
As for GGGAGVRKWRKG, the protein stability index was determined as 0.703 ± 0.058.
Turning to GGGAGWGWGGRM, the protein stability index is 0.673 ± 0.017.
Turning to GGGAPADSGPGG, the protein stability index was determined as 0.628 ± 0.036.
As to GGGARCGLGGRM, the protein stability index was 0.7 ± 0.053.
In the case of GGGDRDGGTASG it was 0.698 ± 0.073.
GGGFLGGTVAAV yielded a protein stability index of 0.7 ± 0.032.
For GGGGAGGGGGRV, the protein stability index was 0.676 ± 0.038.
As to GGGGAGGWGAVG, the protein stability index is 0.67 ± 0.036.
For the sequence GGGGFQVAVGCR, the protein stability index was found to be 0.714.
GGGGGGGAWKGV showed a protein stability index of 0.69 ± 0.02.
GGGGGGGGGAGG came in with a protein stability index of 0.674 ± 0.023.
GGGGGGPGGVLK came in with a protein stability index of 0.706 ± 0.092.
The result for GGGGGGRAGVWG reads 0.687 ± 0.028; that for GGGGGGSRVWSA, 0.698 ± 0.083.
With GGGGGGVEPCFV, the protein stability index amounted to 0.668 ± 0.041.
In the case of GGGGGKAGSHLG it was 0.632 ± 0.01; in that of GGGGGRAQEVQG, 0.717 ± 0.059; in that of GGGGGRAYSWWV, 0.699 ± 0.014.
In the case of GGGGGRGQGWYR it was 0.651 ± 0.032; in that of GGGGGWAGENTR, 0.715 ± 0.075; in that of GGGGLREGGRWE, 0.743 ± 0.038.
Regarding GGGGRVRDALGM, the protein stability index was determined as 0.696 ± 0.048.
GGGGSVGGGALR returned a protein stability index of 0.651 ± 0.0088.
GGGLGRVWVKLG displayed a protein stability index of 0.716 ± 0.08.
GGGLRGVGGLGR returned a protein stability index of 0.602 ± 0.044.
In turn, GGGMCGRSGGRR showed a protein stability index of 0.706 ± 0.011.
In the case of GGGRFRRDRTYE, the protein stability index came to 0.712 ± 0.028.
The result for GGGRWSAGVVEG reads 0.829 ± 0.1; that for GGGSGGVVGGIS, 0.674 ± 0.018; that for GGGSITTFIGDE, 0.695 ± 0.018.
Turning to GGGSRLWGGGRV, the protein stability index is 0.728 ± 0.028.
On to GGGVATGGGGGG, for which the protein stability index is 0.599 ± 0.029.
The result for GGGVGGPGGVLK reads 0.675 ± 0.075.
Consider GGGVGWWVSYVG, for which the protein stability index worked out at 0.673 ± 0.012.
The sequence GGGVRLMSIHRG gave a protein stability index of 0.662 ± 0.012.
For the sequence GGGVSFWLGVVA, the protein stability index was determined as 0.6211 ± 0.0026.
The result for GGGWCESRGDGA reads 0.655 ± 0.085; that for GGGWGSRGVCLG, 0.65 ± 0.11.
The result for GGGWRGRRVADF reads 0.701 ± 0.043; that for GGHGRREEKGQR, 0.6845 ± 0.0058; that for GGHLTMMFGRLF, 0.713 ± 0.019.
The result for GGKWGVAGGGPW reads 0.738 ± 0.074; that for GGLGLVESVFVI, 0.67 ± 0.052.
Turning to GGLGVAGAGVVC, the protein stability index was 0.655 ± 0.042.
With GGPASSGLMDGY, the protein stability index was determined as 0.698 ± 0.0062.
As to GGPGGGGVSDGM, the protein stability index was 0.804 ± 0.14.
In the case of GGPIQAGLSFPG it was 0.685 ± 0.025; in that of GGPRGPPMLIWE, 0.738 ± 0.037.
The sequence GGRFGMWRGGQA had a protein stability index of 0.7245 ± 0.0064.
In the case of GGRGAVSGIVRK, the protein stability index worked out at 0.613 ± 0.014.
In the case of GGRGRGARPGGR it was 0.647 ± 0.027; in that of GGRGSRWAGPRC, 0.669 ± 0.038.
In turn, GGRPIRNTTREG gave a protein stability index of 0.655 ± 0.022.
GGRREGRGFNDG gave a protein stability index of 0.676 ± 0.025.
Regarding GGRRYSRPGQKH, the protein stability index turned out to be 0.661 ± 0.018.
GGRSSGRLMGKE yielded a protein stability index of 0.712 ± 0.013.
GGRTRPGGLSRP returned a protein stability index of 0.678 ± 0.035.
Consider GGSFRLLAVVFP, for which the protein stability index stood at 0.635 ± 0.044.
As for GGSRRANRQMRK, the protein stability index was 0.7148 ± 0.0045.
GGSRRRAVGAGV registered a protein stability index of 0.709 ± 0.057.
On to GGSSEKVLCIWR, for which the protein stability index was determined as 0.7246 ± 0.0014.
Consider GGTCWEGEVVDV, for which the protein stability index was found to be 0.641 ± 0.029.
Regarding GGTKGKAGGEAA, the protein stability index was found to be 0.672 ± 0.043.
Sequence GGVFREEGAAER registered a protein stability index of 0.693 ± 0.021.
GGVGSMITWRVG registered a protein stability index of 0.689 ± 0.082.
In the case of GGVGWWVGVVWG, the protein stability index was 0.624 ± 0.071.
GGVLDGVGVRMG yielded a protein stability index of 0.69 ± 0.054.
Sequence GGVVVGRGVCVF gave a protein stability index of 0.626 ± 0.032.
The sequence GGVVVRGRASAR registered a protein stability index of 0.717 ± 0.02.
In turn, GGWCWGWGPGSG registered a protein stability index of 0.687 ± 0.056.
The result for GGWGGVCGACVV reads 0.702 ± 0.035.
